# In paper PMC9180478:
# What was measured:
# [1] = target: Myc-PCNA (UniProt P12004); test: FLAG-immunoprecipitation, immunoblot; details: transient co-expression with Myc-PCNA; parent: 1.00
# [2] = target: Myc-PCNA (C81R) (UniProt P12004); test: FLAG-immunoprecipitation, immunoblot; details: transient co-expression with Myc-PCNA (C81R); parent: 1.00
ratio to parent [1],ratio to parent [2],Substance
0.91,–,FLAG-ATAD5 (812–1844) (from UniProt Q96QE3) 815SSQD818 to GGAA
1.35,0.91,FLAG-ATAD5 (812–1844) (from UniProt Q96QE3) 815SSQD818 to GGAA; S824A; Q825A; D826A
